One assay has as its target GST-AHSP^WT (human) (UniProt Q9NZD4).
UniProt Q9NZD4, sequence (Q9NZD4 whole entry): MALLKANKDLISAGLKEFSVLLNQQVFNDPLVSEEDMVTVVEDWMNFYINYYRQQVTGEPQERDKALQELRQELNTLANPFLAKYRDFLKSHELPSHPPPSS

Take GST-α-Hb1-126 (domain or fragment): the CO recombination kinetics after flash photolysis of the GST-AHSP^WT/GST-α-Hb complex: fraction of the intermediate (I) phase with GST-AHSP^WT (human) is 19 % I phase.
Turning to native β-Hb (natural protein), the CO recombination kinetics after addition of β-Hb and 1 mM IHP to the GST-AHSP^WT/GST-α-Hb complex: fraction of the rapid (R) phase in the assay with GST-α-Hb1-138 (human) worked out at 95 % R phase; in the assay with GST-α-Hb1-126 (human) it was 80 % R phase; with GST-α-Hb1-134 (human), 84 % R phase; with GST-α-Hb1-117 (human) it was 88 % R phase. Also, the CO recombination kinetics after addition of β-Hb and 1 mM IHP to the GST-AHSP^WT/GST-α-Hb^WT complex: fraction of the slow (T) phase in the assay with GST-α-Hb^WT (human) came out at 32 % T phase.
For native α-Hb (natural protein), in the assay with GST-AHSP^WT (human), the CO recombination kinetics after flash photolysis of the complex: fraction of the intermediate (I) phase worked out at 100 % I phase.
GST-α-Hb1-138 (domain or fragment): the CO recombination kinetics after flash photolysis of the GST-AHSP^WT/GST-α-Hb complex: fraction of the rapid (R) phase in the assay with GST-AHSP^WT (human) came to 97 % R phase.
Take GST-α-Hb1-134 (domain or fragment): the CO recombination kinetics after flash photolysis of the GST-AHSP^WT/GST-α-Hb complex: fraction of the intermediate (I) phase in the assay with GST-AHSP^WT (human) was 10 % I phase.
For the substance GST-α-Hb^WT (natural protein), in the assay with GST-AHSP^WT (human), the CO recombination kinetics after flash photolysis of the GST-AHSP^WT/GST-α-Hb complex: fraction of the intermediate (I) phase came to 100 % I phase.
Still for that read-out and setting: the result for GST-α-Hb1-117 (domain or fragment) reads 20 % I phase.

Values taken from PMC4219717.
